Measured values: patent US20180155405A1 (AB INITIO BIOTHERAPEUTICS, published 2018)
Where two headings read alike, the source gives them in different places.

Legend:
[1] = target: T1, biotinylated human CD47 (IgSF domain, residues 1-117, C15G) (human, UniProt Q08722 19-135, biotinylated in vitro with BirA ligase on the biotin acceptor peptide tag); assay: SPR (Biacore T100), biotinylated CD47 on SA chip, 1:1 Langmuir model
T1 construct: range 1-117; Captured on a Biacore SA chip; also called biotinylated CD47

[2] = target: T2, CD47 on the surface of GFP-luciferase+ DLD1-Tg cells (UniProt Q08722 19-323, limits assumed); assay: flow cytometry competition on DLD1-Tg(GFP-Luc) cells (CD47+), competitor 50 nM biotinylated SIRP-alpha tetramer
T2 construct: whole, on cells; also called CD47+ cells; CD47+ PD-L1+ cells

human PD-L1 = target: T3, human PD-L1 (human, UniProt Q9NZQ7 19-239, limits assumed, biotinylated in Examples 4 and 5); assay: SPR, HGV3 held on chip-captured biotinylated human CD47, then PD-L1 injected; the PD-L1 concentration is not shown
T3 construct: also called biotinylated human PD-L1

[3] = target: T2, CD47 on the surface of GFP-luciferase+ …
[4] = target: T4, CD47 on total splenic cells; assay: in vivo receptor occupancy: NSG mice injected with GV3 on three consecutive days, spleen cells harvested 1 hr and 24 hrs after the last injection, free CD47 read by SIRPA-tetramer binding (FACS)
T4 construct: also called % occupied CD47
T4 sequence (Q61735 whole entry, species assumed, looked up): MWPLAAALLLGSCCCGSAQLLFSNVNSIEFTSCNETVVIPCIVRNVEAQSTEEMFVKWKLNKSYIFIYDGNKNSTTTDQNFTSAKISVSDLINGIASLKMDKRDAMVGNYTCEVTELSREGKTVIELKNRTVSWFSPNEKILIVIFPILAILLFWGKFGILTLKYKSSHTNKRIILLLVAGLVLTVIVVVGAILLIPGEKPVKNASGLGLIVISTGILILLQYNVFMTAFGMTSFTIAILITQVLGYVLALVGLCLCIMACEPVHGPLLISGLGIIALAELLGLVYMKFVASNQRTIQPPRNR

[5] = target: T5, CD47 on mouse splenocytes (mouse, UniProt Q61735); assay: in vivo receptor occupancy: NSG mice injected with GV3 on three consecutive days, spleen cells harvested 1 hr and 24 hrs after the last injection, free CD47 read by SIRPA-tetramer binding (FACS) on mouse splenocytes
T5 construct: cell surface, full length; also called % occupied CD47
T5 sequence (receptor on cells, looked up): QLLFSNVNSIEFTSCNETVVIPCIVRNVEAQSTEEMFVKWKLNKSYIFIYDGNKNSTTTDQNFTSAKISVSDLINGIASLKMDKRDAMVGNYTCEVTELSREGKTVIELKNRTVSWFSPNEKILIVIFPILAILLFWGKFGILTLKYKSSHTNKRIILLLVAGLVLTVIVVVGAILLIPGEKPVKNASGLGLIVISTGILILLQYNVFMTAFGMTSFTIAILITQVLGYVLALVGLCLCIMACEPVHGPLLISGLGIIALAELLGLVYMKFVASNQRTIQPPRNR

[6] = target: T6, CD47 on human cells (CD47+, PDL1+); assay: in vivo receptor occupancy: NSG mice injected with GV3 on three consecutive days, spleen cells harvested 1 hr and 24 hrs after the last injection, free CD47 read by SIRPA-tetramer binding (FACS) on human HL60-Tg(hPDL1, GFP) cells
T6 construct: These cells also carry human PD-L1; also called HL60-Tg(hPDL1, GFP) cells isolated from the spleen; human CD47+ PDL1+ cells
T6 sequence (chain, as listed by the source limits assumed): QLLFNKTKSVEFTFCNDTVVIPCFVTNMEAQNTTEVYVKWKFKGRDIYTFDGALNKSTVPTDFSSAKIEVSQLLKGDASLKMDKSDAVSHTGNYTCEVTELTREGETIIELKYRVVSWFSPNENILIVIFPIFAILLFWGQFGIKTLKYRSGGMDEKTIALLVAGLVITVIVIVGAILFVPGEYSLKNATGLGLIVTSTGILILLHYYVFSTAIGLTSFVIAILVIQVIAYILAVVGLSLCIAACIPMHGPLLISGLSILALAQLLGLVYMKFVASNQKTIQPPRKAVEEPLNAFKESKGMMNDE

T2 sequence (Q08722 19-323 limits assumed): as the sequence (chain, as listed by the source limits assumed) above
T1 sequence (Q08722 other isoform, or with tags, fused parts or gaps C15G C15G limits assumed): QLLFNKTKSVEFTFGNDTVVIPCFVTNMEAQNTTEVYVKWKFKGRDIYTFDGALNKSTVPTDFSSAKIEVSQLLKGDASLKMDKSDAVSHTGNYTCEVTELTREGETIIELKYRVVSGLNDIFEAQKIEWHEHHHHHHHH
T3 sequence (Q9NZQ7 19-239 limits assumed): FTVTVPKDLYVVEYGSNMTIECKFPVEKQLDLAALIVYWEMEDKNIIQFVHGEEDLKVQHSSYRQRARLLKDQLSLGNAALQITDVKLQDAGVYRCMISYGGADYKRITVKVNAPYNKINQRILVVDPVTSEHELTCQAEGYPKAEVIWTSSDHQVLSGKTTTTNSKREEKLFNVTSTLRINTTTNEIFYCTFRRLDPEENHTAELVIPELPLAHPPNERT

Kd [1]: 0.092 nM
dissociation half-life T1/2 [1]: ~0.733 h
IC50 (read off the curve) [2]: ~0.7 nM
binding result (human PD-L1): no binding
IC50 (read off the curve) [3]: ~1 nM
RO half-life [4]: ~10 h
RO half-life [5]: ~5 h
RO half-life [6]: ~30 h
B1: SIRP-gamma variant GV3 (designed binder)
chain: EEELQIIQPEKLLLVTVGKTATLHCTITSLFPVGPIQWFRGVGPGRVLIYNQKDGHFPRVTTVSDGTKRNNMDFSIRISSITPADVGTYYCVKFRKGSPEDVEFKSGPGTEMALGAKPSHHHHHHHH
notes: Monomers were made as MBP fusions in E. coli and MBP was removed with 3C protease; also called HGV3; human GV3
